Source: article PMC6778195

Legend:
ICAM-1^D1D5-Fc [1] = target: ICAM-1^D1D5-Fc (UniProt P05362); test: SPR; ICAM-1^D1D5-Fc immobilized to 850 RU on a CM5 chip precoupled with Protein A; IT4var13 DBLβ proteins 0.9 nM to 250 nM injected at 30 µL/min, 240 s association, 600 s dissociation; 20 mM Hepes, 300 mM NaCl, 0.005% Tween 20, pH 7.2; Biacore T200; global fit to a 2-state reaction model
ICAM-1^D1D5-Fc [2] = target: ICAM-1^D1D5-Fc (UniProt P05362); test: SPR; conditions: for response: top curve of the dilution series (500 nM), read at end of injection (~300 s), parent: est. 240, read off a plot

Sequence of ICAM-1^D1D5-Fc (P05362 28-480): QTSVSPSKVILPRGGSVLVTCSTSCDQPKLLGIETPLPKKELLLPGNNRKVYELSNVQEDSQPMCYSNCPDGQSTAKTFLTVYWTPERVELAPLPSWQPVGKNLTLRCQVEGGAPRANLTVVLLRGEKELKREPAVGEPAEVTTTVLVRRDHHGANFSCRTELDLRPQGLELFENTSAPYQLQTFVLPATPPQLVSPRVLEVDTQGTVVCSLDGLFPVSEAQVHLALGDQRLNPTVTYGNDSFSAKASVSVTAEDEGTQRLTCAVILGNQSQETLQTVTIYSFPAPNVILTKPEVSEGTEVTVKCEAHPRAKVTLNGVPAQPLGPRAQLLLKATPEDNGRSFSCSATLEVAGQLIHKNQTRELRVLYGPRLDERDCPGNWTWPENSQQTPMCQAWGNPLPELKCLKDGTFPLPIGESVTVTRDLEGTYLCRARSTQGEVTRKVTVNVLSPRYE

Substance	response (ICAM-1^D1D5-Fc [2])	also measured
IT4var13 DBLβ Q1103A (domain or fragment)	–	fold decrease in affinity against wild type (ICAM-1^D1D5-Fc [1]): 200 fold
IT4var13 DBLβ domain (wild type) (domain or fragment)	–	Kd (ICAM-1^D1D5-Fc [2]): 1.22 nM
J1a DBLβ domain (wild type) G1117A	35 RU	–
J1a DBLβ domain (wild type) L1093D	260 RU	–
J1a DBLβ domain (wild type) L1096D	140 RU	–
J1a DBLβ domain (wild type) Y1097A	25 RU	–
